Measurements as given in US20240228562A1 (Pieris, published 2024).
Numbering of substitutions follows the chain as printed. Blank lines part the entries; values can stand above or below the binder they belong to.

What was measured:
[1] = target: T1, recombinant human CTGF protein (R&D Systems, SEQ ID NO: 79) (human, UniProt P29279 27-349); assay: ELISA, coated target
T1 construct: Bought; also called human CTGF/CNN2; huCTGF
T1 sequence: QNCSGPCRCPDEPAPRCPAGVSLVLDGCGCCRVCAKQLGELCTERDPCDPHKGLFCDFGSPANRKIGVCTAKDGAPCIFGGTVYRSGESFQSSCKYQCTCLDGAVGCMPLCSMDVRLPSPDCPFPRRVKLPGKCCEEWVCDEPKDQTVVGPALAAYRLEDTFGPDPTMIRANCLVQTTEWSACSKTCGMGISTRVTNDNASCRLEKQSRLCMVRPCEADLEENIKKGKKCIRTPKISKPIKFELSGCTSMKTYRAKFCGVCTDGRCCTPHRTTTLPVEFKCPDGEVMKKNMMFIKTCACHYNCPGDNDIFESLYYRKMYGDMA

cynomolgus CTGF = target: T2, cynomolgus CTGF (cynomolgus, UniProt I7G525 27-349); assay: SPR (Biacore)
T2 construct: also called cyCTGF
T2 sequence: T1 sequence with D11A, P13Q, M250V
Procedure, shortened: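 Lipocalin muteins injected at 25 °C over CTGF either Fc-tagged and captured by anti-human IgG-Fc (0.25-2.5 μg/mL in HBS-EP+, 180 s) or amine-coupled directly to a CM5 chip. Association 180 s, dissociation 900-3600 s, flow 30 μL/min.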

B2: lipocalin mutein of SEQ ID NO: 9 (designed binder)
chain: QDSTSDLIPAPPLSKVPLQQNFQDNQFHGKWYVVGLAGNKILRIDKQPAKMFATIYELKEDKSYDVTSVRFEARSCSYTIKTFVPGSQPGEFTAGNIKSAPGQTSTLVRVVSTNYNQHAMVFFKHVSQNRETFVITLYGRTKELTSELKENFIRFSKSLGLPENHIVFPVPIDQCIDGSAWSHPQFEK
notes: Parent hNGAL mutein; also called hNGAL mutein
EC50 [1]: 14 nM

B3: lipocalin mutein of SEQ ID NO: 15 (designed binder)
chain: QDSTSDLIPAPPLSKVPLQQNFQDNQFQGKWYVVGLAGNAILREDKQPAKMFATIYELKEDKSYDVTSVRFEAKSCKYTIKTFVPGSQPGEFTAGYIKSAPGQTSTLVRVVSTNYNQHAMVFFKHVTQNREIFVITLYGRTKELTSELKENFIRFSKSLGLPENHIVFPVPIDQCIDG
notes: also called hNGAL mutein; not shown: C-terminal His-tag
Kd (cynomolgus CTGF): 0.707 nM
koff (cynomolgus CTGF): 7.57e-05 s⁻¹
kon (cynomolgus CTGF): 107000 M⁻¹ s⁻¹

B5: lipocalin mutein of SEQ ID NO: 7 (designed binder)
chain: QDSTSDLIPAPPLSKVPLQQNFQDNQFHGKWYVVGLAGNYGLRTDKRPSKMFATIYELKEDKSYDVTSVRFEQERCHYTIRTFVPGSQPGEFTTGSIKSRPGQTSSLVRVVSTNYNQHAMVFFKSVIQNREYFAITLYGRTKELTSELKENFIRFSKSLGLPENHIVFPVPIDQCIDGSAWSHPQFEK
notes: as for B2
EC50 [1]: 34 nM

B6: lipocalin mutein of SEQ ID NO: 29 (designed binder)
chain: QDSTSDLIPAPPLSKVPLQQNFQDNQFHGKWYVVGWAGNIKLREDKDPFKMSATIYELKEDKSYNVTEVVFEQKKCHYIIKTFVPGSQPGEFTLGDIKSPPGETSSLVRVVSTNYNQHAMVFFKKVFQNREFFWITLYGRTKELTSELKENFIRFSKSLGLPENHIVFPVPIDQCIDGSAWSHPQFEK
notes: as for B2
EC50 [1]: 11 nM

Further binders by falling EC50 [1], results first:

EC50 [1]: 11 nM
B4: lipocalin mutein of SEQ ID NO: 25 (designed binder)
chain: QDSTSDLIPAPPLSKVPLQQNFQDNQFHGKWYVVGMAGNFRLREDKDPSKMGATIYELKEDKSYNVTQVQFDDKKCLYVIETFVPGSQPGEFTLGAIKSFPGFTSQLVRVVSTNYNQHAMVFFKKVYQNREVFWITLYGRTKELTSELKENFIRFSKSLGLPENHIVFPVPIDQCIDGSAWSHPQFEK
notes: as for B2

EC50 [1]: 6.9 nM
B1: lipocalin mutein of SEQ ID NO: 3 (designed binder)
chain: QDSTSDLIPAPPLSKVPLQQNFQDNQFHGKWYVVGRAGNNRLREDKDPPKMWATIYELKEDKSYNVTHVHFMTKKCRYIIDTFVPGSQPGEFTLGAIKSGPGMTSPLVRIVSTNYNQHAMVFFKWVNQNREWFTITLYGRTKELTSELKENFIRFSKSLGLPENHIVFPVPIDQCIDGSAWSHPQFEK
notes: as for B2
